Measured values from patent US20170189519A1.

Legend:
Assay in all cases: ELISA, coated CR6261, P. pastoris medium
Details in all cases: remark: other sources report otherwise
[1] = target: 191D5 (influenza A H1N1 A/Brisbane/59/2007)
[2] = target: 252F5 (influenza A H1N1 A/Brisbane/59/2007)
[3] = target: 176A5 (influenza A H1N1 A/Brisbane/59/2007)
[4] = target: 126C3 (influenza A H1N1 A/Brisbane/59/2007)
[5] = target: 245C9 (influenza A H1N1 A/Brisbane/59/2007)
[6] = target: 138F8 (influenza A H1N1 A/Brisbane/59/2007)
[7] = target: 192C4 (influenza A H1N1 A/Brisbane/59/2007)
[8] = target: 113E7 (influenza A H1N1 A/Brisbane/59/2007)
[9] = target: 182H2 (influenza A H1N1 A/Brisbane/59/2007)
[10] = target: 112F3 (influenza A H1N1 A/Brisbane/59/2007)
[11] = target: 271F10 (influenza A H1N1 A/Brisbane/59/2007)
[12] = target: 187H10 (influenza A H1N1 A/Brisbane/59/2007)
[13] = target: 188C8 (influenza A H1N1 A/Brisbane/59/2007)
[14] = target: 272H2 (influenza A H1N1 A/Brisbane/59/2007)
[15] = target: 284B9 (influenza A H1N1 A/Brisbane/59/2007)

B1: CR6261 (antibody, V domains shown)
VH: EVQLVESGAEVKKPGSSVKVSCKASGGPFRSYAISWVRQAPGQGPEWMGGIIPIFGTTKYAPKFQGRVTITADDFAGTVYMELSSLRSEDTAMYYCAKHMGYQVRETMDVWGKGTTVTVSS
VL: QSVLTQPPSVSAAPGQKVTISCSGSSSNIGNDYVSWYQQLPGTAPKLLIYDNNKRPSGIPDRFSGSKSGTSATLGITGLQTGDEANYYCATWDRRPTAYVVFGGGTKLTVLG
How did the CR6261 binding signal [1] turn out when B1 was run?
Its CR6261 binding signal is 124000.

What about the CR6261 binding signal [2] of the same binder?
The CR6261 binding signal was 422000.

And the CR6261 binding signal [3]?
Its CR6261 binding signal is 193000.

What about the CR6261 binding signal [4] of the same binder?
The CR6261 binding signal was 220000.

What about the CR6261 binding signal [5] of the same binder?
Its CR6261 binding signal is 180000.

What about the CR6261 binding signal [6] of the same binder?
The CR6261 binding signal was 348000.

And the CR6261 binding signal [7]?
The CR6261 binding signal was 343000.

And the CR6261 binding signal [8]?
Its CR6261 binding signal is 966000.

What about the CR6261 binding signal [9] of the same binder?
Its CR6261 binding signal is 110000.

And the CR6261 binding signal [10]?
Its CR6261 binding signal is 450000.

What about the CR6261 binding signal [11] of the same binder?
Its CR6261 binding signal is 315000.

And the CR6261 binding signal [12]?
Its CR6261 binding signal is 299000.

And the CR6261 binding signal [13]?
The CR6261 binding signal was 113000.

And the CR6261 binding signal [14]?
The CR6261 binding signal was 263000.

And the CR6261 binding signal [15]?
The CR6261 binding signal was 1.66e+06.
